The values that follow come from patent US20260250718.

Experiment in all cases: cell_activity
Data set [1] has as its system T1, Cyin14 (metagenome (uncultured organism)).
T1 sequence: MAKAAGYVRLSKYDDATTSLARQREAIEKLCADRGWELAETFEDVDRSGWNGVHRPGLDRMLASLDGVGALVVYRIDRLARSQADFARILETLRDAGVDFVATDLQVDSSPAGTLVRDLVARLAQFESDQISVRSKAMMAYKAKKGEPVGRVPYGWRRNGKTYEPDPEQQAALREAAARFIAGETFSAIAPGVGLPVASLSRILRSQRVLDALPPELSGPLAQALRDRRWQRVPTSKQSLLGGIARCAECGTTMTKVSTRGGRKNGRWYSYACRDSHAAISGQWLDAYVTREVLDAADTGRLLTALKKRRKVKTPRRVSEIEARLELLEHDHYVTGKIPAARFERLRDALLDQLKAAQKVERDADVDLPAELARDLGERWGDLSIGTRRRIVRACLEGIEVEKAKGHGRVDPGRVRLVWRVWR

Data set [2] has as its system T2, Cyin16 (metagenome (uncultured organism)).
T2 sequence: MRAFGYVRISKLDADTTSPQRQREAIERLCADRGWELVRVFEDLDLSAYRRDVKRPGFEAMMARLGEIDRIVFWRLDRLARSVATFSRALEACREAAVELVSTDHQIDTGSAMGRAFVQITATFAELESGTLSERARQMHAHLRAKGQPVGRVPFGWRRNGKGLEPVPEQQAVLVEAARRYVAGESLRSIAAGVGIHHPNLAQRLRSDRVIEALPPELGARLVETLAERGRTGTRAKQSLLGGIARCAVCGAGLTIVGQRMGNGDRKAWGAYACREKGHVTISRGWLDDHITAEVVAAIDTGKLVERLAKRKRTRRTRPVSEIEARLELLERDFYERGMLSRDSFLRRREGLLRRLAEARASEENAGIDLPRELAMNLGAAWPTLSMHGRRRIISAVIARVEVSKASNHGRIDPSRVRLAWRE
As to conditions: EGFP+ 293T cells at day 20.

Data set [3] relates to T3, Cyin12 (metagenome (uncultured organism)).
T3 sequence: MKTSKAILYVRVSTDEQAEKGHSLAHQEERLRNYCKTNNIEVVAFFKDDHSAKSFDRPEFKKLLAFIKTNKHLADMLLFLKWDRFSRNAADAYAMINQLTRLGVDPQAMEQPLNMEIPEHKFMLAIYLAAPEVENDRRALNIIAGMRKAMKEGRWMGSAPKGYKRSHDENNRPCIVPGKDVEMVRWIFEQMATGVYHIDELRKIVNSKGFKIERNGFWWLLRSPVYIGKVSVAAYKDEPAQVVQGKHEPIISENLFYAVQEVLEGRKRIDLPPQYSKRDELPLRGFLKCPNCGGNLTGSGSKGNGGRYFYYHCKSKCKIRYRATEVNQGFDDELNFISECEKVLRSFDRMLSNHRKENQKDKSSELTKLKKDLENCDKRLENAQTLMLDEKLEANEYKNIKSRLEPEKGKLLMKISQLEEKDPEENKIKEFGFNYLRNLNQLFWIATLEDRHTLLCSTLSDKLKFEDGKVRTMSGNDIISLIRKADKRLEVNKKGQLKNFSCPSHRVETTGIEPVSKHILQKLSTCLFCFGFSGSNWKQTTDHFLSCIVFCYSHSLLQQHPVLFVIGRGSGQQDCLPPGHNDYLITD
As to conditions: EGFP+ 293T cells at day 20.

Data set [4] concerns T4, Cyin15 (metagenome (uncultured organism)).
T4 sequence: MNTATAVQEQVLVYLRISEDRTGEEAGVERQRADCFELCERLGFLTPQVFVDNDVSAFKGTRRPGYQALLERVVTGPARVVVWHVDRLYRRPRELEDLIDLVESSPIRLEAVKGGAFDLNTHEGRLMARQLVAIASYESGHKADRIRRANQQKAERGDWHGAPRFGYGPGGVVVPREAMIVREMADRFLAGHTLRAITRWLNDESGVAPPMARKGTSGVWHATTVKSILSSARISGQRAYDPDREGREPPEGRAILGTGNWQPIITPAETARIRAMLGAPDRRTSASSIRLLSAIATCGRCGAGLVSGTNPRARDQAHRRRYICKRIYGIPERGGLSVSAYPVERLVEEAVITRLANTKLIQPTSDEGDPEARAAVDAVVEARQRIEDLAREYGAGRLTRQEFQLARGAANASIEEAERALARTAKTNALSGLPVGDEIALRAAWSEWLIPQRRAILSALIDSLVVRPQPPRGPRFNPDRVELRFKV
As to conditions: EGFP+ 293T cells at day 20.

The test system of data set [5] is T5, Cyin11 (metagenome (uncultured organism)).
T5 sequence: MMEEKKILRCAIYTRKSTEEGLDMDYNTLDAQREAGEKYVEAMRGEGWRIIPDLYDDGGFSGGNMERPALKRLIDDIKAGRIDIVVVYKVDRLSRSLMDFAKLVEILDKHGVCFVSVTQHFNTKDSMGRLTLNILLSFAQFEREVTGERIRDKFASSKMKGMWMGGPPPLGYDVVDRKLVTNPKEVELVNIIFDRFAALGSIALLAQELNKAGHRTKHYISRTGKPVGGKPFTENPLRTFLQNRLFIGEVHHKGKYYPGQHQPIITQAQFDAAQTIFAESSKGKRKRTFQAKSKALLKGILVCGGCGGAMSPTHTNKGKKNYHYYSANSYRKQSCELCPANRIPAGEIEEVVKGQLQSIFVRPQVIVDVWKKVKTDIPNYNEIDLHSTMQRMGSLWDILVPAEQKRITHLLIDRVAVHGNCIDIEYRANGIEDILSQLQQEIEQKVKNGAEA
As to conditions: EGFP+ 293T cells at day 20.

Data set [6] concerns T6, phiC31 integrase (Streptomyces phage phiC31?).
T6 sequence: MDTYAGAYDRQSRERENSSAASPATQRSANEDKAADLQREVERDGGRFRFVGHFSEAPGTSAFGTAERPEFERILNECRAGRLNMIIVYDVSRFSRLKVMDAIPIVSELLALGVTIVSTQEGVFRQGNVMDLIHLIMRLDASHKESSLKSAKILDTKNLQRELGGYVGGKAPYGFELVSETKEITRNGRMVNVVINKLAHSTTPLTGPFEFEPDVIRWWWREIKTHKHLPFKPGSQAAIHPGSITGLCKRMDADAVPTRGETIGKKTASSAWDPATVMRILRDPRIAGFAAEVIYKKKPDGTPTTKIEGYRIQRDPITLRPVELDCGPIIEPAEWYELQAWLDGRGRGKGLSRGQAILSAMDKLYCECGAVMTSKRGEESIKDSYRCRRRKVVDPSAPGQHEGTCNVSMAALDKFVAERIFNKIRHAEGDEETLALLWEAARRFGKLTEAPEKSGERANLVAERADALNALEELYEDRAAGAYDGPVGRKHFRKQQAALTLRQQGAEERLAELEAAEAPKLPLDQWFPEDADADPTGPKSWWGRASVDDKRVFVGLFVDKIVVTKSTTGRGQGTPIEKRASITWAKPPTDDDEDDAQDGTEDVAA
The conditions noted are these: positive control; EGFP+ 293T cells at day 20.

Consider “ACGTATACTGGCGTACACTGATCAAGGAGGGGCCATGGCCAAGGCAGCCGGGTACGTCAGGCTCAGCAAGTACGACGACGCCACCACTAGTCTCGCCCGCCAGCGTGAGGCCATCGAAAAGCTGTGCCCGGCTCTGGGATCGCCTCACCGAGATCGAGCCGCACGCGTTCGAACCGGTGGAGACGAGGTGAAGCCGAACAGGGTCGCGCTCTATCTCCAAGACAAGCACCCCCTCCGCGAGGGGATGAAGTA (double strand) [14-B1]”, for which, in data set [1] (EGFP+ 293T cells at day 20), the activity is 1.38%. The sequence “TCGATTCGGTTCGCCGCGCCGCTACCGGATCGCGCCGAAGAGATGACTGATCTCGAGGCTCCGGCCCGAAGGCCTCCTCAACGGCTTCGAGGATCGATTCGGCGCGCACGGGTGCCTCTCTCCGCGCGCCAGCGCGAGGCAATCGAGCGCCTCTGTGCTGACCGCGGGTGGGAGCTCGTTCGAGTCTTCGAGGATCTCGACCTCTCGGCCTACCGCCGCGACGTGAAGCGGCCGGGCTTCGAGGCCATGATGG (double strand) [16-P1]” showed an activity in data set [2] of 1.69%.

On to “AGCGCCACTTCGTGTGGGGCGTGTTGGAGGATCTCCAAAGCCTCTTCGGCTGAGCCCGCCTCCGTGACGTCGGCGCCCTCCACGCAGTTCTGCAGGACCTGGATGAGGCCCTTTCGAACCAGCGTGTGTACGTGGAGCGGAAGGGGCCGATTATTGACTGAACCGTAGACCAGCCCTATGCTGCTATGGCCGACCAGAGGAGGGGGAGCCATGCGCGCCTTCGGCTACGTCCGGATCTCCAAGCTCGACGCCG (double strand) [16-P2]”, for which the activity in data set [2] was 2.33%. For “TGCCGGCCAGTGCCGTCTCGGAGGTGGTGAACCAGGTTTCGGATGAAGTCGTCGGCCTCGGTCCCATCGAGCGATTGCTCAAGGACCCGGAGATCAGCGAGGTGATGGTGAACGGGGCCGACGACGTGGTCGTCGACCAGGAGGACCTTCACGAGGCCGCCTCTCGCAACGGGAACCGGGCCACGACCCGCGTGCCCTTCCCCGGCCGCGGATAGACGTAGAGCCTGCCCCCAGCCTCCCGCACGCGGCGGCG (double strand) [16-B2]”, the activity in data set [2] (significantly above no-integrase control) is 4.23%. For the sequence “TTGTCTTCCTCTGCAGTCAATTGTTTTGGATCATCTTTTTTGGGAACAACAAGATTACTTTGAACATTATCTCTATTTACACCGGTTGAAACCTGGTCCTTCTTATTAAGAACTTCTGTATTTGTCAAAGCAATTCTTTATGTCAGAGTGAGTACAGACGAACAGGCTGAAAAAGGTCACAGTCTGGCTCATCAGGAAGAACGACTTCGTAATTATTGCAAAACAAATAATATCGAGGTCGTTGCTTTTTTTA (double strand) [12-P1]”, the activity in data set [3] was 1.53%. Take “GGAATCAGCCGGGGCTTCTCGGCCGTCAACATCCGCAAGTTCGTGGTGCGAGCATCGCGCCTGTCGGAGCTGGTCGATCTGCAGAGCCTCACGCCGTCCGCGGCCCTGTTCCTCGAGGCATCCATCCGGGACGACGGCCCCGGAGAGCGATCCCGCTGTGAGCAGGCCGCCCTCGGCAATGTCGAGCGCCGCATGCTGGCCGACCACCTGTTCGATCTCGCTTGCGAGCACCGGCTTCACCGCTGGGTCCGCGCT (double strand) [15-B2]”: the activity in data set [4] turned out to be 1.12%. Regarding “ATCCAATGTGCAAGGCCATTTAGATGTCGCTTTGGCAAACACACTCGGCCGTTTGTGTCATGAATTATAATATCAGACATGCTACTGAAAAAGATTTATCTGCACTTTGCGATATTGAACATGAATCTTTATTTCCCAAACCAAAAAATGCGTTACCGTTCCAGCGCGTGCCGGTAATTGCAAATGCGACACCAGATAGGCTTTTATATTTCAGCCCCTGATATTCATAGCCGTCAGCCAGCACATACACAT (double strand) [11-B1]”, the activity in data set [5] is 1.78%. Regarding “GGGTATTCGGCCTCTCTCCCCGTCACGTCCGCGACGTCTTCGTCGCCGGGGAGCTGGTGGTGGAAGACCGGCGGCCAACGCGGGTCCAGCCGGAGGACATCGTCTGGGACGCCGCCGCGGAGGCCGCGCCGACCGCGGCTGGGAGCTCGCCGAGACCTTCGAGGACGTGGACCGCTCCGGGTGGAACGGGGTTCACCGGCCCGGGCTCGACCGGATGCTGGCCTCACTCGACGGCGTTGGCGCGCTGGTCGT (double strand) [14-P1]”, the activity in data set [1] (EGFP+ 293T cells at day 20, donor plasmid integration into genome, significantly above no-integrase control) stood at 10.1%. “GTCGACGATGTAGGTCACGGTCTCGAAGCCGCGGTGCGGGTGCCAGGGCGTGCCCTTGGGCTCCCCGGGCGCGTACTCCACCTCACCCATCTGGTCCATCATGATGAACGGGTCGAGGTGGCGGTAGTTGATCCCGGCGAACGCGCGGCGCACCGGGAAGCCCTCGCCCTCGAAACCGCTGGGCGCGGTGGTCACGGTGAGCACGGGACGTGCGACGGCGTCGGCGGGTGCGGATACGCGGGGCAGCGTCAGCGGGTTCTCGACGGTCACGGCGGGCATGTCGAC (double strand) [phiC31 attB]” displayed an activity in data set [6] of 8.87%.
